From patent US20260347481 (published 2026)
Non-standard residues stand in square brackets, D forms with d. No end group written: not given here. *: point of attachment. Biotin = O=C1N[C@H]2[C@H](CS[C@H]2CCCCC(=O)*)N1; Arg(Me2a) = CN(C)C(=N)NCCC[C@H](N)C(=O)O

T1: Target peptide (meEGFR R198/R200) (human, cysteine pairing not given here)
T1 chain: K(Biotin)QCSG[Arg(Me2a)]C[Arg(Me2a)]GKSPSDC-NH2


Molecular target: T1, Target peptide (meEGFR R198/R200)

Row | EC50 | Binder
1 | 0.0359 nM | Example 2 (antibody, V domains shown) VH: QVQLQESGPGLVKPSETLSLTCSVSGDSITRSGYYWAWVRQSPGKGLEYIGSISYSGTTYYNPSLKSRVTISVDTSKNQFSLKLSSVTAADTAVYYCAREWNGLDVWGKGTMVTVSS VL: LNFMLTQPHSVSESPGKTVTISCTRSSGSIASNYVQWYQQRPGSSPTTVIYEDNQRPFGVPDRFSGSIDSSSNSASLTISGLKTEDEADYYCQSYDSGHQIFGGGTKLTVLG
2 | 0.0258 nM | Example 3 (antibody, V domains shown) VH: QVQLQESGPGLVKPSGTLSLTCAVSGDSISSSSYYWGWIRQPPGKGLEWIGSIYYSGSTYYNPSLKSRVTISVDTSKNQFSLKLSSVTAADTAVYYCAREWNGLDVWGKGTLVTVSS VL: LNFMLTQPHSVSESPGKTVTISCTGSSGSIASNYVQWYQQRPGSAPTTVIYEDNQRPSGVPDRFSGSIDSSSNSASLTISGLKTEDEADYYCQSYDRGNTEVMFGGGTKVTVLG
